One block for each molecule: values may come before it.
Columns and labels:
[1] = target: FLAG- and V5-tagged ATXN7L3 (UniProt Q14CW9); assay: affinity purification with mass spectrometry
[2] = target: T1, FLAG- and V5-tagged ATXN7L3 (UniProt Q14CW9 1-347); assay: affinity purification with mass spectrometry
T1 sequence (looked up): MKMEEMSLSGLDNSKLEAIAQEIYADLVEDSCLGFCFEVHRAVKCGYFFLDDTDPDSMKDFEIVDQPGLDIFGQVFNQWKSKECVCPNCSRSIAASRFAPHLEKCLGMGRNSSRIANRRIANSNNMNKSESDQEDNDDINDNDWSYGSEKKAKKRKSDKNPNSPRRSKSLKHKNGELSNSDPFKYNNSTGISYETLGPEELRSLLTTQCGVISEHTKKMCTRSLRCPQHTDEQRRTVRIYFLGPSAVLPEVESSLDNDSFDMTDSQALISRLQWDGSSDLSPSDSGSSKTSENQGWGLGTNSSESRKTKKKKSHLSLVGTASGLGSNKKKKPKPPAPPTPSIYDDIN

fold increase of association with ATXN7L3 upon depletion of USP22 [1]: 5.5 fold
Molecule: USP27X (endogenous) (enzyme)

fold increase of association with ATXN7L3 upon depletion of USP22 [2]: ~4 fold
B1: USP51 (endogenous) (enzyme, human (endogenous in 293T), UniProt Q70EK9 1-711, looked up)
chain: MAQVRETSLPSGSGVRWISGGGGGASPEEAVEKAGKMEEAAAGATKASSRREAEEMKLEPLQEREPAPEENLTWSSSGGDEKVLPSIPLRCHSSSSPVCPRRKPRPRPQPRARSRSQPGLSAPPPPPARPPPPPPPPPPPAPRPRAWRGSRRRSRPGSRPQTRRSCSGDLDGSGDPGGLGDWLLEVEFGQGPTGCSHVESFKVGKNWQKNLRLIYQRFVWSGTPETRKRKAKSCICHVCSTHMNRLHSCLSCVFFGCFTEKHIHKHAETKQHHLAVDLYHGVIYCFMCKDYVYDKDIEQIAKETKEKILRLLTSTSTDVSHQQFMTSGFEDKQSTCETKEQEPKLVKPKKKRRKKSVYTVGLRGLINLGNTCFMNCIVQALTHIPLLKDFFLSDKHKCIMTSPSLCLVCEMSSLFHAMYSGSRTPHIPYKLLHLIWIHAEHLAGYRQQDAHEFLIAILDVLHRHSKDDSGGQEANNPNCCNCIIDQIFTGGLQSDVTCQACHSVSTTIDPCWDISLDLPGSCATFDSQNPERADSTVSRDDHIPGIPSLTDCLQWFTRPEHLGSSAKIKCNSCQSYQESTKQLTMKKLPIVACFHLKRFEHVGKQRRKINTFISFPLELDMTPFLASTKESRMKEGQPPTDCVPNENKYSLFAVINHHGTLESGHYTSFIRQQKDQWFSCDDAIITKATIEDLLYSEGYLLFYHKQGLEKD
